Data on 34 sequences can be found in a protein production outcome set (Wang et al. 2014).

The nature of this series: label from the status in PepcDB records.

In the case of “MYSYADRLRAVELYIRLGKRLNTTIRQLGYPTKNALRGWYREYVQHLDLRTQPVARAPKYSEAQRQAALEHFRTHDRCISGTMRALGYPGRGTLTAWVREAFPEARTSMVGRSWHPGYSEEVRQAGVIGLCSGDESAQQVADRLGVSRPTLYSWKDQLLGHEASSSMKRRKANPKVPEREELERKLEALQRDVRQLQLEHDLLKKANELLKKGLGVDLLILSNREKTQLIDALKEVYRLPELLAQLRIARSSYFYHRARMCLADKYAAVRLSLAEIFEANRRCYGYRRLQASLARKSVIVSEKVVQRLMKQEHLAVARPRRRRFGSYLGEISPAPENLINRDFHADAPNVKWLTDITEFQIPAGKVYLSPIIDCFDGMVISWSIGTQPDAGLVNTMLDAAIGTVANGEERPIIHSDRGAHYRWPGWLTRISEARLVRSMSRKGCSQDNAACEGFFGRLKTELFYPRDWKAITIEQFVAEVDAYIRWYNEKRIKISLGSLSPVEYRQSLGLKLLEHHHHHH”, the protein production entry is on record as “not failed”. The entry for “MYTCKNKERMLMYKTIIMPVDVFEMELSDKAIRHAEFLAQDDGVIHLLHVLPGSASLSLHRFAADVRRFEEHLQHEAEERLQTMVSHFTIDPSRIKQHVRFGSVRDEVNELAKELDADVVVIGSRNPSISTHLLGSNASSVIRHANLPVLVVR” is “failed”. The entry for “MYTNVHSANNYQANLSNRSYGFKELAVLYFPNIAPASASIRLKQWIKDDVELLGSLEETNYHLSNRILTPKQRDLITTTFGSPFLEHHHHHH” is “failed”. The result for “MYVFIEPNDLKDYLITVYDERNRAIRKQTQVYCFYLMIVLFVALFFFFPCLTIRDLVSYKLPLIFAYLYLIIRSLVAKKMEALGKITTNSQKPPFDTSQVLC” reads “failed”. Regarding “MYVTTGTNDILLTINDYVNKETASYQLTDISNNTLISEIIEKIKVLKNYTYSSTDLVLYFARVECKLSEKLSTYNKSNRKTIKLELYLSKLITINVRTLQSCGTGTSRCIPFWSFCFRQNIKIKIIDTCEVRVLKQKIYNLTDESTSIPVENIVLLYKGAPLNNFLTLKESELIDNCRIDYFVPLCYIYKKKKEESDEDEDENEEKLKEHTKSEDKKVDTQQNENVKSENVNNENVKNENVNNENVKNENVNNENVNNENVNIENVKNDNNDNAKKC”, the protein production result is recorded as “failed”. With “MYYKQLDSLVFTDGESIAKARLASMTDMWFSSDLHLGHKFVASMRGFDDPDEHDEVILSNFENTIGPDDVLWILGDLSSGAHRAEERALGLIAERLGGVVKHLVPGNHDSCHPMYRHAYKRQRRFLEVFDSVQAFQRMKWDDEDVYLSHFPRPGQDHPGMESRFDDLRLRVPLLIHGHLHSQFPMTGPGQVDVGVEAWGLKPAPRELVQLKLWESLSEKILEHHHHHH”, the protein production result is listed as “failed”. Regarding “MYYVIFAQDIPNTLEKRLAVREQHLARLKQLQAENRLLTAGPNPAIDDENPSEAGFTGSTVIAQFENLQAAKDWAAQDPYVEAGVYADVIVKPFKKVF”, the protein production result is on record as “not failed”.

Turning to “NATTLPEALKLMQYIGDAIGTIRDPQELFRTVTDKLRLLFAFDSAVIITIDRERREASVFFEMLRFELPEQLRHQTRSIAGTWLEGHLDDRTVTVASIARDIPSFGADGAPLLWTLHELGMRQIVLSPLRSGGRVIGFLSFVSAEEKLWSDGDKSLLSGVSSSIAIAVSNALAYEELRQREAETSMQLAINNALFTI”, the protein production result is on record as “not failed”. The result for “NDQDAIQEKFYPPRFIQVPENMSIDEGRFCRMDFKVSGLPAPDVSWYLNGRTVQSDDLHKMIVSEKGLHSLIFEVVRASDAGAYACVAKNRAGEATFTVQLDVLAKEHKRAPMFIYKPQSKKVLEGDSVKLECQISAIPPPKLFWKRNNEMVQFNTDRISLYQDNTGRVTLLIKDVNKKDAGWYTVSAVNEAGVTTCNTRLDVTARPNQTLPAPKQLRVRPTFSKYLALNGKGLNVKQAFNPEGEFQRLAAQSGLYESEEL” reads “failed”. The result for “NGADVQVSNIDYRLSRKELQQLLQEAFARHGKVKSVELSPHTDYQLKAVVQMENLQDAIGAVNSLHRYKIGSKKILVSLATGA” reads “not failed”; that for “NGDPQWLVQAARTAVLRTYEYGRALLKGLFTDSPFNIDIFDTQLRFVGLNIAERRAGVFQGTEYSGHTMREMAPPGLLDVDALEARQRRVLETGKALIDTEVVGHPVANSPREYVWSESILPLRDPSGRVIALGHVVSDV”, “failed”; that for “NGNPIPMGYSQAVENNVQITNFALFSAAAIGVELCLFDEQNQETRLPMVRTENVWHLAVTGVKTGTEYAFRIHGEFANPQKLILDPYAKAVNGKPDLSSEESRSWFLLSDNRDNAHLAPRAVVIS”, “failed”.

Regarding “NGQSDVKHIGILQYVEHPSLTATRKGFIKELAKEGYKDGKNIKIEYKNAQGDQSNIQSISEKLIKDNKLVLGIATPAAQSLTTVSTETPILFTAVTDPVSAELVKSMKKPEGLATGTSDMSPIKKQVSLLRKVMPKVKRVGIMYTTSERNSEVQVKQAKKIFQEAGIKTSVKGISSTNDVQDTAKSLMSKTEVIFVPTDNIIASSVTLLGNLSKELKVPVVGGSADMVPSGLLFSYGADYEALGRQTARQAVKILKGKDVAKVPSEYPQNLKVVVNEDMAKELGIDVSSIK”, the protein production entry is given as “not failed”. Take “NIILASRSLDKCYAIKESMLKKGLGEIGVEQVDADDTQALVALIQKYKPKVVINVALPYQDLTIMQACLETKTHYIDTANYEHPDLAKFEYKEQWAFDRAYKEVGILGVLGAGFDPGVTNAYVAHAQKHHFDTIHTLDILDCNAGDHKRPFATNFNPEINL”: the protein production entry is given as “failed”. The result for “NNQIGFCGVRKNINGNLYLLVYGMPAAINIDPIEKKPILHMYPNSLIYSISTVGCSFACQYCQNYDISQRRNIEGFDYSPEEIVNSAIEDGCRGIAYTYNEPSIFMEFAHDVGILARKRGLINIFVTNGYETPEAVEYSKDFLDAATVDFKGNASNDFYRKYISVPSADPIFDTIKLMKESGIHVEITDLVVPRVGDKLSDARSMLERLISILGYEFPISFLRFHPDYKMMDLPPTPLETLKAHYNLAVSMGLKYVYIGNVPGYYEDTYCPNCHSLLIKRHGFNSSVV” reads “failed”; that for “NNTPIGTLRIGCSSTMAQNVLARITAKMLKEYPGLSVNLVTGIPAPDLIADGLDVVIRVGALQDSSLFSRRLGSMPMVLCAAKSYLAQAGNPEKPADLAGHAWLEYSVRPDNEFVIIAPEGISTRLTPQGRFVTNDPMTL”, “failed”; that for “NPQIREEVALDTQTGANPSAEELADGDIQAVAQAANERTGALFVVITDGLGIRLSHPDEERLGEQVSTSFEAAMRGEETMAWETGTLGASARAKVPIFAPDSSVPVGEVSVGFERDSVYSRLPMFLAA”, “failed”. The entry for “NQQTPTFYVHGFQGSAKSTNTLIAHAEKTAHAHKVLVATVSTSGQVTLTGKWRGRVRNPIIQVVFKNNLAQYDQQSAWLAKVITTVQQQHAFKHYNIVAHSAGCVASVNMLMTQQTTTFPKINKLVTIAGPFDGVVGEDDVANQNSFLTSGQPKYLHAAYELLAAKRNNFPKNVQLLNIVGTLNDGSHSDSLVTNVSARSIKYLLRGRDVDYTEKDFYGAHAQHSQLHENAKVALAVDRFLWHR” is “failed”. The result for “NRCTFACVFCQNYDIVYEDDYIVDARELAYIIDVRRRQGSKNVNFVGGNPDQHAHTIAEILLYVESNVPVVWNSNMYHSEELAEVIEDFVDVWLGDFKYGNDECARKYSKVANYWKVVTRNFLRAKENG” reads “failed”.

As for “NRLLSKYDPQKEAELRTWIEGLTGLSIGPDFQKGLKDGTILCTLMNKLQPGSVPKINRSMQNWHQLENLSNFIKAMVSYGMNPVDLFEANDLFESGNMTQVQVSLLALAGKAKTKGLQSGVDIGVKYSEKQER”, the protein production result was “not failed”. The result for “NSTWSGESKTLVLSNLSYSATEETLQEVFEKATFIKVPQNQNGKSKGYAFIEFASFEDAKEALNSCNKREIEGRAIRLELQGPRGSPN” reads “not failed”. The result for “NTDYYGLDYALSFNQVEIEEKRIVIAGSGGIARTVIRYMLDHGAHRVDVLTRNAQNARRNLDIPGIGLHENIDEDYDIYVNCTPLGTLGDGDPFSTVDFRSGRTGIDLVYNPPDTPFLKRMRNAGGRTVSGLDVFIGQGLRTLELVFGIRPDSIFREYAVEALNEIR” reads “failed”; that for “NTITVSELLELIKKEDVIIVDTRSPREFKEETLPGAINIPLFLDDEHALIGKTYKQESREKAIEIATDIVEKSLKRILNEAKKLDRDKLIVVFCARGGMRSQTMALILQLLGFKVKRLIGGFKAFKHA”, “not failed”; that for “NVAYPLGEGLLSFAESLESQKIHFTTEVITSRIEPANRYVAEKLRITPGQDILYLERLRSIGDEKAMLIENRINIELCPGIVEIDFNQHNLFPTIESLSKRKIRYSESRYAARLIGNERGHFLDISEDAPVLHLEQLVFFSRELPVEFGNVWLKGNKYYLGTVLQRRELS”, “not failed”. Turning to “NVVLRILAWLLAVGLVVLPVVAVLNGWVGAERWPLAKLRVSGDFKRVSAEELRAVVLPYVRSGFFAVRLPQVQDAVERLPWVERAHVSKRWPDVLEVSVVEHQPFARWGSDRMLSEQGRLFPVPGGLKNLKLPQLGGPDMKVRDVVALYKASSALFASTGLDVSWLQMDARGSWSLGLSNGLQIFVGRDDARARLERFARVLPQLLDPQRPVVRADLRYTN”, the protein production result is reported as “failed”.

For the sequence “NVYDLANELERAVRALPEYQAVLTAKSAIESDADAQVLWQDFLATQSKVQEMMQSGQMPSQEEQDEMSKLGEKIESNDLLKVYFDQQQRLSVYMSDIEKIVFAPMQDL”, the protein production result is listed as “not failed”.

For the sequence “PASGVRPAEAADLAAVAAYDSACSPADRPRFLEHWLAGPGHRTFVRLVDGRLTGYGVVRPALDSLRVGPLFADSAEDARALFTALTADAGEIAMDIPETNTAAVALAREAGLTPSFETARMYTGPVRPFAADRVYGITSLELG”, the protein production result is “failed”. For the sequence “PDHKMSDVDTRHVAGLMRINHTGEVCAQALYQGQALTAKLPKVRKAMEHAAEEEIDHLVWCEQRIHQLGSHTSVLNPLFYGLSFGIGAVAGVISDRVSLGFVAATEDQVCKHLGEHLEQLPIEDGKSRAILEQMLSDEEHHAE”, the protein production result is recorded as “failed”.

For “PDMDPRCPARADPRKLHDAIARFGVNHLFGSPALLRVLAEYGKPLPTLRCVTSAGAPVPPYVVAQIRALLSDEAQFLTPYGATECLPIAVIESRE”, the protein production result is listed as “failed”. The entry for “PDVDGMITLKVDNLTYRTSPDSLRRVFEKYGRVGDVYIPREPHTKAPRGFAFVRFHDRRDAQDAEAAMDGAELDGRELRVQVARYGRRDL” is “not failed”.

As to “PELKCPVIGCDGQGHISGKYTSHRTASGCPLAAKRQKENPLNGASLSWKLNKQELPHCPLPGCNGLGHVNNVFVTHRSLSGCPLNAQVIKKGKVS”, the protein production entry is recorded as “not failed”.

Regarding “PELPTCLTRRLADYATEKPLVRLFFQGEEATVPFISQTSRELNMDINILLANIDRFDGVTCGVLVVELTANPLLLEAFINRCEQAGITVEVLGYVLPDGL”, the protein production entry is “not failed”. Regarding “PETYGRLVEPTTLKIERLLPGPIERVWAYLTQSDLRRRWLASGEMRLAPDAPFELVWRNDELSDPPGHRPEGFSEEEKMASRIITVVPPHHLVFSWGESGEVSIELQALGKDVLLTLIHRRLVGRKTKLDVSAGWHVHLDILAARLQEKEPAPFWDTWLALKEEYEPR”, the protein production result was “failed”. The entry for “PEVGSSEHKLKIRNIKLSDYDDIFEIMESVYADIGGPWTKKELRSHLNHFPEGQICIEDNGKVIAAAFSLIVNYSNYGDKHTYQQITGDGLLTNHDPEGDTLYGIDIFVHPEFRGLRLGRRLYDARKELCEKLNLRAIIVGGRIPGYKNFAKKLTPRQYIEEVKKKEIFDPVLTFQLANDFHLRKIIQGYLPDDRDSKAYAALLEWKNALYEIEE” is “failed”.
